Laboratory results published in patent US20230212319A1, “NOVEL ANTIGEN BINDING DOMAINS AND SYNTHETIC ANTIGEN RECEPTORS INCORPORATING THE SAME” (University of Southern California, priority 2020, published 2023).

Test system: Daudi cells expressing luciferase
Experiment: Daudi-luciferase i.p. model in NSG mice, CD16 SAR-T plus rituximab
Type: in vivo
Details: rituximab plus 1 × 10^7 SAR-T cells, IL-2, NSG mice
Method: Use of universal SAR-T cells expressing CD16 as the antigen binding domain. Daudi cells expressing luciferase are injected intraperitoneally (i.p.; 0.3 × 10^6 cells/mouse) in NSG mice (Jackson Laboratory). Some mice receive rituximab ([…]) i.p. Human T cells (1 × 10^7) expressing CD8SP-hu-mROO5-1-vL-[hTCRb-S57C]-F-P2A-IgSP-Apa-CD16-V158-v2-G4Sx3v2-hu-mROO5-1-vH-[hTCRa-T48C] (SEQ ID NO: 4725) SAR are injected four days after Daudi inoculation. Control mice receive tissue culture medium instead of rituximab or T cells. Rituximab injection is repeated weekly for 4 weeks, with no further T lymphocyte injection. All mice receive intraperitoneal injections of 1,000-2,000 IU of IL-2 twice a week for 4 weeks.

B1: 4725 (protein)
chain: MALPVTALLLPLALLLHAARPDIQMTQSPSSLSASVGDRVTITCKASDHINNWLAWYQQKPGQAPKLLIYGATTLETGVPSRFSGSGSGTDYTLTISSLQPEDFATYYCQQSWNTPWTFGQGTKLEIKRLEDLKNVFPPEVAVFEPSEAEISHTQKATLVCLATGFYPDHVELSWWVNGKEVHSGVCTDPQPLKEQPALNDSRYCLSSRLRVSATFWQNPRNHFRCQVQFYGLSENDEWTQDRAKPVTQIVSAEAWGRADCGFTSESYQQGVLSATILYEILLGKATLYAVLVSALVLMAMVKRKDSRGRAKRSGSGATNFSLLKQAGDVEENPGPTSMDWIWRILFLVGAATGAHSGPQVQLQESGGGLAQAGGSLRLSCAASGRTFSMGWFRQAPGKEREFVAAITYSGGSPYYASSVRGRFTISRDNAKNTVYLQMNSLKPEDTAVYYCAANPTYGSDWNAENWGQGTQVTVSSGSGGGGSGGGGSGGGGSFEQVQLQQPGAELVKPGASVKMSCKASGYAFSSYWINWMKQKPGQGLEWIGQIYPGDGDTNYNGKFKGRATLTADTSSSTAYMQLSSLTSEDSAVYFCARSITTVVGCAMDYWGQGTSVTVSSTRIQNPDPAVYQLRDSKSSDKSVCLFTDFDSQTNVSQSKDSDVYITDKCVLDMRSMDFKSNSAVAWSNKSDFACANAFNNSIIPEDTFFPSPESSCDVKLVEKSFETDTNLNFQNLSVIGFRILLLKVAGFNLLMTLRLWSSRAKRSGSGVKQTLNFDLLKLAGDVESNPGPSRGHMTEYKPTVRLATRDDVPRAVRTLAAAFADYPATRHTVDPDRHIERVTELQELFLTRVGLDIGKVWVADDGAAVAVWTTPESVEAGAVFAEIGPRMAELSGSRLAAQQQMEGLLAPHRPKEPAWFLATVGVSPDHQGKGLGSAVVLPGVEAAERAGVPAFLETSAPRNLPFYERLGFTVTADVEVPEGPRTWCMTRKPGA
modifications: Synthetic Polynucloetide
**Q.** How did the “tumor growth, Daudi-luciferase i.p.” value turn out when B1 was run?
**A.** reduced tumor growth
